Sequences and labels used below:
B1: Zinc finger protein ZIC 2, residues 250 to 295; numbered along this chain, O95409 (parent)
chain: QCIKQELICKWIDPEQLSNPKKSCNKTFSTMHELVTHVSVEHVGGP

± gives the uncertainty stated by the source.

In this series the parent is B1. Briefly: abundance fitness (aPCA) (normalised: wild type 0, dead -1); higher = more abundant; growth selection in yeast, the domain comes from the species named. As to conditions: Homo sapiens.
Take QCIKQELICKWIDPEQLSNPKKSCNKTFSTMHELVTHVSVEHVMGP [G44M]: the abundance fitness is -0.372 ± 0.1.

As for QCIKQELICKWIDPEQLSNPKKSCNKTFSTMHELVTHVSVEHVPGP [G44P], the abundance fitness is -0.217 ± 0.1.

With QCIKQELICKWIDPEQLSNPKKSCNKTFSTMHELVTHVSVEHVLGP [G44L], the abundance fitness was -0.641 ± 0.097.

For the variant QCIKQELICKWIDPEQLSNPKKSCNKTFSTMHELVTHVSVEHVVGP [G44V], the abundance fitness was -0.273 ± 0.088.

QCIKQELICKWIDPEQLSNPKKSCNKTFSTMHELVTHVSVEHVWGP [G44W]: the abundance fitness was -0.082 ± 0.098.

Take QCIKQELICKWIDPEQLSNPKKSCNKTFSTMHELVTHVSVEHVAGP [G44A]: the abundance fitness was -0.006 ± 0.087.

For the variant QCIKQELICKWIDPEQLSNPKKSCNKTFSTMHELVTHVSVEHVCGP [G44C], the abundance fitness was -0.062 ± 0.096.

On to QCIKQELICKWIDPEQLSNPKKSCNKTFSTMHELVTHVSVEHVHGP [G44H], for which the abundance fitness was -0.292 ± 0.11.

Take QCIKQELICKWIDPEQLSNPKKSCNKTFSTMHELVTHVSVEHVIGP [G44I]: the abundance fitness was -0.363 ± 0.11.

As for QCIKQELICKWIDPEQLSNPKKSCNKTFSTMHELVTHVSVEHVRGP [G44R], the abundance fitness turned out to be 0.057 ± 0.086.

With QCIKQELICKWIDPEQLSNPKKSCNKTFSTMHELVTHVSVEHVQGP [G44Q], the abundance fitness was -0.267 ± 0.13.

On to QCIKQELICKWIDPEQLSNPKKSCNKTFSTMHELVTHVSVEHVEGP [G44E], for which the abundance fitness was -0.2 ± 0.099.

With QCIKQELICKWIDPEQLSNPKKSCNKTFSTMHELVTHVSVEHVFGP [G44F], the abundance fitness is -0.384 ± 0.1.

For QCIKQELICKWIDPEQLSNPKKSCNKTFSTMHELVTHVSVEHVTGP [G44T], the abundance fitness is -0.045 ± 0.091.

Take QCIKQELICKWIDPEQLSNPKKSCNKTFSTMHELVTHVSVEHVNGP [G44N]: the abundance fitness is -0.019 ± 0.11.

Take QCIKQELICKWIDPEQLSNPKKSCNKTFSTMHELVTHVSVEHVKGP [G44K]: the abundance fitness is -0.142 ± 0.12.

As for QCIKQELICKWIDPEQLSNPKKSCNKTFSTMHELVTHVSVEHVYGP [G44Y], the abundance fitness is -0.357 ± 0.13.

Regarding QCIKQELICKWIDPEQLSNPKKSCNKTFSTMHELVTHVSVEHQGGP [V43Q], the abundance fitness was 0.116 ± 0.095.

Take QCIKQELICKWIDPEQLSNPKKSCNKTFSTMHELVTHVSVEHYGGP [V43Y]: the abundance fitness was 0.485 ± 0.1.

QCIKQELICKWIDPEQLSNPKKSCNKTFSTMHELVTHVSVEHKGGP [V43K]: the abundance fitness is 0.088 ± 0.11.

In the case of QCIKQELICKWIDPEQLSNPKKSCNKTFSTMHELVTHVSVEHLGGP [V43L], the abundance fitness is -0.299 ± 0.09.

Consider QCIKQELICKWIDPEQLSNPKKSCNKTFSTMHELVTHVSVEHEGGP [V43E], for which the abundance fitness came to 0.587 ± 0.088.

On to QCIKQELICKWIDPEQLSNPKKSCNKTFSTMHELVTHVSVEHPGGP [V43P], for which the abundance fitness came out at 0.129 ± 0.095.

Turning to QCIKQELICKWIDPEQLSNPKKSCNKTFSTMHELVTHVSVEHTGGP [V43T], the abundance fitness worked out at 0.108 ± 0.096.

In the case of QCIKQELICKWIDPEQLSNPKKSCNKTFSTMHELVTHVSVEHMGGP [V43M], the abundance fitness was -0.126 ± 0.1.

On to QCIKQELICKWIDPEQLSNPKKSCNKTFSTMHELVTHVSVEHGGGP [V43G], for which the abundance fitness came out at 0.247 ± 0.084.

Consider QCIKQELICKWIDPEQLSNPKKSCNKTFSTMHELVTHVSVEHRGGP [V43R], for which the abundance fitness was determined as 0.226 ± 0.085.

Regarding QCIKQELICKWIDPEQLSNPKKSCNKTFSTMHELVTHVSVEHFGGP [V43F], the abundance fitness stood at 0.063 ± 0.11.

For QCIKQELICKWIDPEQLSNPKKSCNKTFSTMHELVTHVSVEHSGGP [V43S], the abundance fitness is 0.313 ± 0.088.

For the variant QCIKQELICKWIDPEQLSNPKKSCNKTFSTMHELVTHVSVEHHGGP [V43H], the abundance fitness worked out at 0.012 ± 0.11.

QCIKQELICKWIDPEQLSNPKKSCNKTFSTMHELVTHVSVEHAGGP [V43A]: the abundance fitness turned out to be 0.052 ± 0.086.

On to QCIKQELICKWIDPEQLSNPKKSCNKTFSTMHELVTHVSVEHWGGP [V43W], for which the abundance fitness was -0.332 ± 0.1.

For QCIKQELICKWIDPEQLSNPKKSCNKTFSTMHELVTHVSVYHVGGP [E41Y], the abundance fitness is -0.226 ± 0.12.

Consider QCIKQELICKWIDPEQLSNPKKSCNKTFSTMHELVTHVSVWHVGGP [E41W], for which the abundance fitness is -0.387 ± 0.1.

Consider QCIKQELICKWIDPEQLSNPKKSCNKTFSTMHELVTHVSVVHVGGP [E41V], for which the abundance fitness is -0.125 ± 0.086.

Take QCIKQELICKWIDPEQLSNPKKSCNKTFSTMHELVTHVSVEHVGAP [G45A]: the abundance fitness was 0.035 ± 0.091.

QCIKQELICKWIDPEQLSNPKKSCNKTFSTMHELVTHVSVEHVGEP [G45E]: the abundance fitness is -0.032 ± 0.1.

With QCIKQELICKWIDPEQLSNPKKSCNKTFSTMHELVTHVSVEHVGDP [G45D], the abundance fitness amounted to 0.034 ± 0.088.

As to QCIKQELICKWIDPEQLSNPKKSCNKTFSTMHELVTHVSVEHVGFP [G45F], the abundance fitness is -0.202 ± 0.1.

Take QCIKQELICKWIDPEQLSNPKKSCNKTFSTMHELVTHVSVEHVGCP [G45C]: the abundance fitness is -0.017 ± 0.1.

With QCIKQELICKWIDPEQLSNPKKSCNKTFSTMHELVTHVSVEQVGGP [H42Q], the abundance fitness was -0.909 ± 0.13.

For QCIKQELICKWIDPEQLSNPKKSCNKTFSTMHELVTHVSVELVGGP [H42L], the abundance fitness is -0.975 ± 0.098.

Regarding QCIKQELICKWIDPEQLSNPKKSCNKTFSTMHELVTHVSVEGVGGP [H42G], the abundance fitness was -0.661 ± 0.091.

For the variant QCIKQELICKWIDPEQLSNPKKSCNKTFSTMHELVTHVSVETVGGP [H42T], the abundance fitness is -0.89 ± 0.11.

As to QCIKQELICKWIDPEQLSNPKKSCNKTFSTMHELVTHVSVESVGGP [H42S], the abundance fitness is -0.854 ± 0.095.

Turning to QCIKQELICKWIDPEQLSNPKKSCNKTFSTMHELVTHVSVEIVGGP [H42I], the abundance fitness was -0.862 ± 0.12.

QCIKQELICKWIDPEQLSNPKKSCNKTFSTMHELVTHVSVEEVGGP [H42E]: the abundance fitness was -1.07 ± 0.13.

For the variant QCIKQELICKWIDPEQLSNPKKSCNKTFSTMHELVTHVSVEWVGGP [H42W], the abundance fitness was -0.707 ± 0.12.

QCIKQELICKWIDPEQLSNPKKSCNKTFSTMHELVTHVSVEPVGGP [H42P]: the abundance fitness was -1.13 ± 0.14.

On to QCIKQELICKWIDPEQLSNPKKSCNKTFSTMHELVTHVSVEYVGGP [H42Y], for which the abundance fitness is -0.971 ± 0.12.

Take QCIKQELICKWIDPEQLSNPKKSCNKTFSTMHELVTHVSVEDVGGP [H42D]: the abundance fitness is -1.01 ± 0.12.

Regarding QCIKQELICKWIDPEQLSNPKKSCNKTFSTMHELVTHVSVECVGGP [H42C], the abundance fitness is -1.16 ± 0.14.

For QCIKQELICKWIDPEQLSNPKKSCNKTFSTMHELVTHVSVEFVGGP [H42F], the abundance fitness was -1.04 ± 0.13.

QCIKQELICKWIDPEQLSNPKKSCNKTFSTMHELVTHVSVEAVGGP [H42A]: the abundance fitness was -0.689 ± 0.096.

For the variant QCIKQELICKWIDPEQLSNPKKSCNKTFSTMHELVTHVSVENVGGP [H42N], the abundance fitness is -1.25 ± 0.16.

Regarding QCIKQELICKWIDPEQLSNPKKSCNKTFSTMHELVTHVSVEMVGGP [H42M], the abundance fitness was -0.642 ± 0.12.
